Results published in US20120237442A1 (published 2012).

Tests used:
[1] = molecular target: T1, human CD20 (human, UniProt P11836 1-297); assay: ELISA, reference veltuzumab
T1 construct: whole, on cells
T1 sequence (looked up): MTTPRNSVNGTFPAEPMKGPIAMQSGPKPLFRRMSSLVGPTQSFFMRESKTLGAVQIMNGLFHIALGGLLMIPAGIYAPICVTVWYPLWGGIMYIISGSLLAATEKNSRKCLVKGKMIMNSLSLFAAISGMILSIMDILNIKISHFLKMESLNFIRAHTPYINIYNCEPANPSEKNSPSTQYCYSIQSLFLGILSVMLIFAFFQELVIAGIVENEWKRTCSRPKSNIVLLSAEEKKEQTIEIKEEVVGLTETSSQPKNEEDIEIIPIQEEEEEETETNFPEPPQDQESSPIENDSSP

[2] = molecular target: T1, human CD20; assay: flow cytometry on live NHL cells, reference veltuzumab

B1: 20-(20)-(20) (antibody)
heavy 1: not shown
heavy 2: not shown
light: DIQLTQSPSSLSASVGDRVTMTCRASSSVSYIHWFQQKPGKAPKPWIYATSNLASGVPVRFSGSGSGTDYTFTISSLQPEDIATYYCQQWTSNPPTFGGGTKLEIKRTVAAPSVFIFPPSDEQLKSGTASVVCLLNNFYPREAKVQWKVDNALQSGNSQESVTEQDSKDSTYSLSSTLTLSKADYEKHKVYACEVTHQGLSSPVTKSFNRGEC
modifications: DNL complex locked by disulfide bridges between the cysteines of AD2 and DDD2. Stoichiometry: 2 IgG-AD2 heavy chains, 4 Fd-DDD2 chains, 6 kappa chains. Each unique chain is listed once.
notes: One Fc and 6 anti-CD20 Fabs; also called Hex-hA20; HexAb of veltuzumab
fold higher binding avidity compared to veltuzumab [1]: 3 fold | fold slower off-rate compared to veltuzumab [2]: 3 fold
